% inhibition of 125I-labeled VEGF binding data for one molecule are collected here from patent US20050250700A1.

Bridge positions count the residues as written; N and C are the ends. Side chains are listed from the residue outwards. * marks the point of attachment. Biotin = O=C1N[C@H]2[C@H](CS[C@H]2CCCCC(=O)*)N1; AEEA = NCCOCCOCC(=O)O

For test [1], the target named is KDR (VEGFR-2), full-length receptor on cells (human), P35968. The test can be described thus: competitor 125I-VEGF (300 pM) on KDR-transfected 293H cells; peptide 0.3 µM. As to conditions: remark: other sources report otherwise.
Chain of KDR (VEGFR-2), full-length receptor on cells (human), P35968 (P35968 20-1356): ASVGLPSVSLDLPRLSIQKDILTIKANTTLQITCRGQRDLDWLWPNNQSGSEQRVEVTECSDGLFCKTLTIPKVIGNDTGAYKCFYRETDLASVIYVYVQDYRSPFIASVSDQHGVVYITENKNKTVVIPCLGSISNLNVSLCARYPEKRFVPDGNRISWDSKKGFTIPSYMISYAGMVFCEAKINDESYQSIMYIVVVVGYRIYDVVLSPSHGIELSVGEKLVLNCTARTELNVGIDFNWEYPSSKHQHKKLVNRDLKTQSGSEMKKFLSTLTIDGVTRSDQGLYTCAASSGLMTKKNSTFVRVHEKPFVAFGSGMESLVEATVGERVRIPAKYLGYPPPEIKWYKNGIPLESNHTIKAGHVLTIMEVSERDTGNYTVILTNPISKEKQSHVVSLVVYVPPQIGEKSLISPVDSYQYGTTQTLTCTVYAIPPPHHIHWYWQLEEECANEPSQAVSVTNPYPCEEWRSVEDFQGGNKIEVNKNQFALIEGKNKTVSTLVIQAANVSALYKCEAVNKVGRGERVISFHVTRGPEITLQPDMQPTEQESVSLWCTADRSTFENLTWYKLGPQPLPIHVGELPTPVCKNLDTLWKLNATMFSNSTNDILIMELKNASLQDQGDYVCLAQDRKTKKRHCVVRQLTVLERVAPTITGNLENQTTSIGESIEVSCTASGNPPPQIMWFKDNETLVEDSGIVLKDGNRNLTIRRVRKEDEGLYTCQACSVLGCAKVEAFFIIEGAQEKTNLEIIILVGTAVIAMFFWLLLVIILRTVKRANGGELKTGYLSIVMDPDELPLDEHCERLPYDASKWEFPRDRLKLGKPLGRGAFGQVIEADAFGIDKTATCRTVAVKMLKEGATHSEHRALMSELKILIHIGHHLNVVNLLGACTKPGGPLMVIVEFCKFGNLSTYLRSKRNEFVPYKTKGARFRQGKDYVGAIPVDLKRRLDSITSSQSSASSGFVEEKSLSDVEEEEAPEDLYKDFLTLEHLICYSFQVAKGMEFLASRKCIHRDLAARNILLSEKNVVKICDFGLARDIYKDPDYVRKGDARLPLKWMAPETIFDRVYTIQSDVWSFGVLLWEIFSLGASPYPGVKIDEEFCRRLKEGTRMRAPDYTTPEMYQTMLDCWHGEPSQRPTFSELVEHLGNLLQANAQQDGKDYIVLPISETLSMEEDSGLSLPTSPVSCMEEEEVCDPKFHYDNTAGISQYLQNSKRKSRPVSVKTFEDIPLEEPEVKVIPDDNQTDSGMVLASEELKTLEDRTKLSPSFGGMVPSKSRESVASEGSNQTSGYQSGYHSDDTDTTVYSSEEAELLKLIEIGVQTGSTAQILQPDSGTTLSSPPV
The target is the same in test [2]. The experiment in a line: competitor 125I-VEGF (300 pM) on KDR-transfected 293H cells; peptide 30 µM. As to conditions: remark: other sources report otherwise.

With Ac-AGPKWCEEDWYYCMITGTGGGK([AEEA-AEEA-Biotin])-NH2 (disulfide 6-13 (inferred)) [biotinylated SEQ ID NO:264 with a JJ spacer], the % inhibition of 125I-labeled VEGF binding in test [1] turned out to be 24.4%; in test [2] it was 48%.
